Experimental data reported in patent US20150160219.

How the values were obtained:
[1] = system: Indicator molecule of Example 4 with 2 MMP9 cleavage sites (ALP first capture region, terminal biotin via PEG)
[2] = system: Indicator molecule of Example 5 with 2 MMP9 cleavage sites (terminal biotin, DNP, FITC)
[3] = system: Indicator molecule of Example 2 (peptide with one MMP9 cleavage site, first capture region ALP, terminal biotin via polyethylene glycol spacer)
[4] = system: Indicator molecule of Example 4 with 3 MMP9 cleavage sites (ALP first capture region, terminal biotin via PEG)
[5] = system: Indicator molecule of Example 4 with 5 MMP9 cleavage sites (ALP first capture region, terminal biotin via PEG)
[6] = system: Indicator molecule of Example 5 with 4 MMP9 cleavage sites (terminal biotin, DNP, FITC)
[7] = system: Indicator molecule of Example 3 (synthetic peptide with MMP-9 sequence, HNE sequence, DNP, fluorescent label and terminal biotin via PEG)
[8] = system: Indicator molecule of Example 4 with 7 MMP9 cleavage sites (ALP first capture region, terminal biotin via PEG)
[9] = system: Indicator molecule of Example 5 with 3 MMP9 cleavage sites (terminal biotin, DNP, FITC)

Sequence of Matrix Metalloprotease-9 (MMP-9) (Mologic) (chain, as listed by the source): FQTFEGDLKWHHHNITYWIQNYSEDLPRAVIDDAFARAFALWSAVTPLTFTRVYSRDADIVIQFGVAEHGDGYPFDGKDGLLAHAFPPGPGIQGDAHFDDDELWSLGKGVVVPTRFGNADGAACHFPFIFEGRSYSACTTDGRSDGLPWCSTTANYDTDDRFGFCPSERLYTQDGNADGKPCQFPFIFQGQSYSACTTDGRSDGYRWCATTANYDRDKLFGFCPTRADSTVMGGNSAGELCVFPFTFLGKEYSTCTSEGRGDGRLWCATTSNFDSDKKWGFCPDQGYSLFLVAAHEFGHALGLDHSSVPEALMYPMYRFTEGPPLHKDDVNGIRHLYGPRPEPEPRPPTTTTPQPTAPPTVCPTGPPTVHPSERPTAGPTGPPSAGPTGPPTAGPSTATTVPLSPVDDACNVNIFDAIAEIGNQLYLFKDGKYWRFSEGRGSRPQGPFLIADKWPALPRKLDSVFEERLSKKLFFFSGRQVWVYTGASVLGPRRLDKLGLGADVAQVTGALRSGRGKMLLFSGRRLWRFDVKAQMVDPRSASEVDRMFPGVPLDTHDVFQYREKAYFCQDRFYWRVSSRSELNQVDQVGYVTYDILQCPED

Question: With “Matrix Metalloprotease-9 (MMP-9) (Mologic)” as the substance, how does the test line signal at 31.25 ng/ml MMP9 [1] read?
Answer: 0.68 reader units

Question: What about the test line signal at 62.5 ng/ml MMP9 [1] of the same substance?
Answer: 0.32 reader units

Question: And the test line signal at 125 ng/ml MMP9 [1]?
Answer: 0.57 reader units

Question: What about the test line signal at 250 ng/ml MMP9 [1] of the same substance?
Answer: 1.99 reader units

Question: And the test line signal at 500 ng/ml MMP9 [1]?
Answer: 3.48 reader units

Question: What about the test line signal at 1000 ng/ml MMP9 [1] of the same substance?
Answer: 12 reader units

Question: And the test line signal at 2000 ng/ml MMP9 [1]?
Answer: 11.8 reader units

Question: And the “cut-off of the assay” value [2]?
Answer: The cut-off with all indicator molecules was below <31.25 ng/ml

Question: What about the test line signal at 31.25 ng/ml MMP9 [2] of the same substance?
Answer: 1.36 reader units

Question: And the test line signal at 62.5 ng/ml MMP9 [2]?
Answer: 1.78 reader units

Question: What about the test line signal at 125 ng/ml MMP9 [2] of the same substance?
Answer: 3.46 reader units

Question: What about the test line signal at 250 ng/ml MMP9 [2] of the same substance?
Answer: 5.44 reader units

Question: What about the test line signal at 500 ng/ml MMP9 [2] of the same substance?
Answer: 6.87 reader units

Question: What about the test line signal at 1000 ng/ml MMP9 [2] of the same substance?
Answer: 5.48 reader units

Question: What about the test line signal at 2000 ng/ml MMP9 [2] of the same substance?
Answer: 12.8 reader units

Question: And the “detectable limit of the lateral flow cleavage assay” value [3]?
Answer: approximately 250-500 ng/ml

Question: What about the “sensitivity of the assay” value [3] of the same substance?
Answer: 250-500 ng/ml MMP9, seen with an indicator molecule having 1 cleavage site

Question: What about the test line signal at 31.25 ng/ml MMP9 [3] of the same substance?
Answer: 0 reader units

Question: And the test line signal at 62.5 ng/ml MMP9 [3]?
Answer: 0 reader units

Question: What about the test line signal at 125 ng/ml MMP9 [3] of the same substance?
Answer: 0 reader units

Question: And the test line signal at 250 ng/ml MMP9 [3]?
Answer: 0 reader units

Question: And the test line signal at 500 ng/ml MMP9 [3]?
Answer: 1.93 reader units

Question: And the test line signal at 1000 ng/ml MMP9 [3]?
Answer: 4.52 reader units

Question: And the test line signal at 2000 ng/ml MMP9 [3]?
Answer: 8 reader units

Question: And the test line signal at 31.25 ng/ml MMP9 [4]?
Answer: 0 reader units

Question: And the test line signal at 62.5 ng/ml MMP9 [4]?
Answer: 0 reader units

Question: What about the test line signal at 125 ng/ml MMP9 [4] of the same substance?
Answer: 0 reader units

Question: What about the test line signal at 250 ng/ml MMP9 [4] of the same substance?
Answer: 0.92 reader units

Question: What about the test line signal at 500 ng/ml MMP9 [4] of the same substance?
Answer: 3.84 reader units

Question: And the test line signal at 1000 ng/ml MMP9 [4]?
Answer: 7.57 reader units

Question: And the test line signal at 2000 ng/ml MMP9 [4]?
Answer: 10.5 reader units

Question: And the test line signal at 31.25 ng/ml MMP9 [5]?
Answer: 1.04 reader units

Question: What about the test line signal at 62.5 ng/ml MMP9 [5] of the same substance?
Answer: 1.36 reader units

Question: What about the test line signal at 125 ng/ml MMP9 [5] of the same substance?
Answer: 2.14 reader units

Question: What about the test line signal at 250 ng/ml MMP9 [5] of the same substance?
Answer: 5.01 reader units

Question: And the test line signal at 500 ng/ml MMP9 [5]?
Answer: 9.93 reader units

Question: What about the test line signal at 1000 ng/ml MMP9 [5] of the same substance?
Answer: 16.8 reader units

Question: And the test line signal at 2000 ng/ml MMP9 [5]?
Answer: 20.5 reader units

Question: And the “cut-off of the assay” value [6]?
Answer: The cut-off with all indicator molecules was below <31.25 ng/ml

Question: What about the test line signal at 31.25 ng/ml MMP9 [6] of the same substance?
Answer: 2.69 reader units

Question: And the test line signal at 62.5 ng/ml MMP9 [6]?
Answer: 2.94 reader units

Question: What about the test line signal at 125 ng/ml MMP9 [6] of the same substance?
Answer: 5.63 reader units

Question: What about the test line signal at 250 ng/ml MMP9 [6] of the same substance?
Answer: 10.1 reader units

Question: What about the test line signal at 500 ng/ml MMP9 [6] of the same substance?
Answer: 11.2 reader units

Question: What about the test line signal at 1000 ng/ml MMP9 [6] of the same substance?
Answer: 16.3 reader units

Question: What about the test line signal at 2000 ng/ml MMP9 [6] of the same substance?
Answer: 16.2 reader units

Question: What about the “cut-off of the assay” value [7] of the same substance?
Answer: The cut-off with all indicator molecules was below <31.25 ng/ml

Question: And the “detectable limit of the lateral flow cleavage assay” value [7]?
Answer: approximately 125-250 ng/ml

Question: And the test line signal at 31.25 ng/ml MMP9 [7]?
Answer: 1.37 reader units

Question: What about the test line signal at 62.5 ng/ml MMP9 [7] of the same substance?
Answer: 1.28 reader units

Question: And the test line signal at 125 ng/ml MMP9 [7]?
Answer: 2.01 reader units

Question: And the test line signal at 250 ng/ml MMP9 [7]?
Answer: 3.34 reader units

Question: And the test line signal at 500 ng/ml MMP9 [7]?
Answer: 3.73 reader units

Question: And the test line signal at 1000 ng/ml MMP9 [7]?
Answer: 4.33 reader units

Question: And the test line signal at 2000 ng/ml MMP9 [7]?
Answer: 8.7 reader units

Question: What about the “sensitivity of the assay” value [8] of the same substance?
Answer: <31.25 ng/ml for an indicator molecule having 7 cleavage sites

Question: What about the test line signal at 31.25 ng/ml MMP9 [8] of the same substance?
Answer: 2.27 reader units

Question: And the test line signal at 62.5 ng/ml MMP9 [8]?
Answer: 2.81 reader units

Question: What about the test line signal at 125 ng/ml MMP9 [8] of the same substance?
Answer: 3.25 reader units

Question: And the test line signal at 250 ng/ml MMP9 [8]?
Answer: 6.19 reader units

Question: And the test line signal at 500 ng/ml MMP9 [8]?
Answer: 9.31 reader units

Question: What about the test line signal at 1000 ng/ml MMP9 [8] of the same substance?
Answer: 21.3 reader units

Question: What about the test line signal at 2000 ng/ml MMP9 [8] of the same substance?
Answer: 25.3 reader units

Question: What about the “cut-off of the assay” value [9] of the same substance?
Answer: The cut-off with all indicator molecules was below <31.25 ng/ml

Question: And the test line signal at 31.25 ng/ml MMP9 [9]?
Answer: 1.45 reader units

Question: What about the test line signal at 62.5 ng/ml MMP9 [9] of the same substance?
Answer: 2.56 reader units

Question: What about the test line signal at 125 ng/ml MMP9 [9] of the same substance?
Answer: 3.1 reader units

Question: And the test line signal at 250 ng/ml MMP9 [9]?
Answer: 5.58 reader units

Question: And the test line signal at 500 ng/ml MMP9 [9]?
Answer: 9.04 reader units

Question: What about the test line signal at 1000 ng/ml MMP9 [9] of the same substance?
Answer: 11.6 reader units

Question: What about the test line signal at 2000 ng/ml MMP9 [9] of the same substance?
Answer: 17.9 reader units
